Positions count from the first letter of the chain named. Names and notes keep the numbering of the source. Values joined by “and” are separate entries in the source; they are usually repeats but may differ in a detail not shown here. Equal entries are not always repeated.
Assays:
[1] = molecular target: T1, human heat shock transcription factor Hsf1, wild type (human), Q00613; assay: native gel or EMSA; blue native polyacrylamide gel; monomeric Hsf1 after heat shock (42°C; pre-incubation at different temperatures for 10 min), Hsf1-buffer; also detected by immunoblot with Hsf1 antiserum; settings: remark: other sources report otherwise
T1 chain: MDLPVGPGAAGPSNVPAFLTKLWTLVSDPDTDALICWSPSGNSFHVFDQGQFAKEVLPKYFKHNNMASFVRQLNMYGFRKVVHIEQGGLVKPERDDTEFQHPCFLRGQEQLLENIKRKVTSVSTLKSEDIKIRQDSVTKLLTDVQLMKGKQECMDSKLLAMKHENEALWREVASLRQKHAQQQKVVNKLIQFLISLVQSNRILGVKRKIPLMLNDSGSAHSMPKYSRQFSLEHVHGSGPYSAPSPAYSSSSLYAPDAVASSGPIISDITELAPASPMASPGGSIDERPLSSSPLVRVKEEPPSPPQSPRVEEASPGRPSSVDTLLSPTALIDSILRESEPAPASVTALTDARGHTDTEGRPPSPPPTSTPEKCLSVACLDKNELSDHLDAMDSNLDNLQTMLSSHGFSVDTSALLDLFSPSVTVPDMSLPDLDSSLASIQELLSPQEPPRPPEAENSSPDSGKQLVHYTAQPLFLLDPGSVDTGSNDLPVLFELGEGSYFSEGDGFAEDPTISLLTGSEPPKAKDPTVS

[2] = molecular target: T1, human heat shock transcription factor …; assay: HDX-MS + fluorescence polarisation; monomer to dimer; fit of the quadratic solution of the law of mass action to Tm values (10 min incubation, wild type) against Hsf1 concentration, assuming the fraction of dimer determines Tm; rough estimate; settings: remark: other sources report otherwise
[3] = molecular target: T1, human heat shock transcription factor …; assay: HDX-MS; kinetics: 5 µM Hsf1 heat-shocked 10-1000 s at 35, 37, 39 or 42°C, then 30 s in D2O at 20°C; single exponential fits of the low-exchanging fraction; settings: remark: other sources report otherwise
[4] = molecular target: T1, human heat shock transcription factor …; assay: SEC; S200 HiLoad 16/60 in Hsf1-buffer (25 mM Hepes pH 7.4, 150 mM NaCl, 10% glycerol, 2 mM DTT), 4°C, after Ni-IDA and cleavage of the SUMO tag; settings: remark: other sources report otherwise
[5] = molecular target: the molecule itself; assay: HDX-MS; 5 µM Hsf1 or mutant in Hsf1-buffer pre-incubated 10 or 30 min at 20-42°C, diluted 1:20 into D2O buffer, 30 s at 20°C, quenched, online pepsin, LC-MS

B1: human heat shock transcription factor Hsf1, wild type, Q00613 1-529 (natural protein)
chain: T1 chain
stoichiometry N [1]: 3 | Kd [2]: 330 nM | rate of increase of the low-exchanging HR-A/B population (trimerization) at 35°C [3]: 0.0018 s⁻¹ | rate of increase of the low-exchanging HR-A/B population (trimerization) at 37°C [3]: 0.0033 s⁻¹ | rate of increase of the low-exchanging HR-A/B population (trimerization) at 39°C [3]: 0.0094 s⁻¹ | rate of increase of the low-exchanging HR-A/B population (trimerization) at 42°C [3]: 0.016 s⁻¹ | stoichiometry N [4]: 2 and 3

B2: human Hsf1-S303D (natural protein, UniProt Q00613 1-529, looked up)
chain: T1 chain with S303D
notes: heat shock transcription factor 1 (Hsf1), human, phosphomimetic variant S303D; Probably made and purified as the wild type (6xHis-SUMO fusion in E. coli, tag cleaved); also called phosphomimetic Hsf1 variant
binding result [5]: binds

B3: human Hsf1-S307D (natural protein, UniProt Q00613 1-529, looked up)
chain: T1 chain with S307D
notes: heat shock transcription factor 1 (Hsf1), human, phosphomimetic variant S307D; Probably made and purified as the wild type (6xHis-SUMO fusion in E. coli, tag cleaved); also called phosphomimetic Hsf1 variant
binding result [5]: binds

Source: article PMC4775227, “Molecular mechanism of thermosensory function of human heat shock transcription factor Hsf1” (eLife, 2016)
